# Source: article PMC5462532
# Assays:
# [1] = target: UbcH7 (C17S, C86K, C137S)∼Ub conjugate (for ITC) (human) (UniProt P68036); experiment: ITC; 250-300 μM RING1 constructs in the syringe, 25-30 μM E2 or E2∼Ub in the cell; 293 K; 25 mM Hepes pH 7.5, 150 mM NaCl, 0.5 mM TCEP; 1:1 fit; repeated twice, averages
# [2] = target: UbcH7 (wild type, for ITC) (human) (UniProt P68036); experiment: as above
# [3] = target: HHARI of the HHARI/UbcH7 complex analysed by SEC-MALS (human) (UniProt Q9Y4X5); experiment: SEC-MALS; HHARI/UbcH7 complex at 1.5 mg/ml in 25 mM MOPS, 150 mM NaCl, pH 7.5; Superose 6 Increase 3.2/300; room temperature
Kd [1] [µM],dH [1] [kcal/mol],stoichiometry N [1],Kd [2] [µM],dH [2] [kcal/mol],stoichiometry N [2],stoichiometry N [3],Substance
0.116,3.7,1,0.294,4.3,1,–,"HHARI RING1 (aa 177-270), wild type (from UniProt Q9Y4X5 177-270) (domain or fragment)"
–,–,–,–,–,–,1,UbcH7 of the HHARI/UbcH7 complex analysed by SEC-MALS (from UniProt P68036 1-154) (enzyme)
